The target in one assay is T1, ROS1 (Homo sapiens, UniProt P08922).
T1 chain: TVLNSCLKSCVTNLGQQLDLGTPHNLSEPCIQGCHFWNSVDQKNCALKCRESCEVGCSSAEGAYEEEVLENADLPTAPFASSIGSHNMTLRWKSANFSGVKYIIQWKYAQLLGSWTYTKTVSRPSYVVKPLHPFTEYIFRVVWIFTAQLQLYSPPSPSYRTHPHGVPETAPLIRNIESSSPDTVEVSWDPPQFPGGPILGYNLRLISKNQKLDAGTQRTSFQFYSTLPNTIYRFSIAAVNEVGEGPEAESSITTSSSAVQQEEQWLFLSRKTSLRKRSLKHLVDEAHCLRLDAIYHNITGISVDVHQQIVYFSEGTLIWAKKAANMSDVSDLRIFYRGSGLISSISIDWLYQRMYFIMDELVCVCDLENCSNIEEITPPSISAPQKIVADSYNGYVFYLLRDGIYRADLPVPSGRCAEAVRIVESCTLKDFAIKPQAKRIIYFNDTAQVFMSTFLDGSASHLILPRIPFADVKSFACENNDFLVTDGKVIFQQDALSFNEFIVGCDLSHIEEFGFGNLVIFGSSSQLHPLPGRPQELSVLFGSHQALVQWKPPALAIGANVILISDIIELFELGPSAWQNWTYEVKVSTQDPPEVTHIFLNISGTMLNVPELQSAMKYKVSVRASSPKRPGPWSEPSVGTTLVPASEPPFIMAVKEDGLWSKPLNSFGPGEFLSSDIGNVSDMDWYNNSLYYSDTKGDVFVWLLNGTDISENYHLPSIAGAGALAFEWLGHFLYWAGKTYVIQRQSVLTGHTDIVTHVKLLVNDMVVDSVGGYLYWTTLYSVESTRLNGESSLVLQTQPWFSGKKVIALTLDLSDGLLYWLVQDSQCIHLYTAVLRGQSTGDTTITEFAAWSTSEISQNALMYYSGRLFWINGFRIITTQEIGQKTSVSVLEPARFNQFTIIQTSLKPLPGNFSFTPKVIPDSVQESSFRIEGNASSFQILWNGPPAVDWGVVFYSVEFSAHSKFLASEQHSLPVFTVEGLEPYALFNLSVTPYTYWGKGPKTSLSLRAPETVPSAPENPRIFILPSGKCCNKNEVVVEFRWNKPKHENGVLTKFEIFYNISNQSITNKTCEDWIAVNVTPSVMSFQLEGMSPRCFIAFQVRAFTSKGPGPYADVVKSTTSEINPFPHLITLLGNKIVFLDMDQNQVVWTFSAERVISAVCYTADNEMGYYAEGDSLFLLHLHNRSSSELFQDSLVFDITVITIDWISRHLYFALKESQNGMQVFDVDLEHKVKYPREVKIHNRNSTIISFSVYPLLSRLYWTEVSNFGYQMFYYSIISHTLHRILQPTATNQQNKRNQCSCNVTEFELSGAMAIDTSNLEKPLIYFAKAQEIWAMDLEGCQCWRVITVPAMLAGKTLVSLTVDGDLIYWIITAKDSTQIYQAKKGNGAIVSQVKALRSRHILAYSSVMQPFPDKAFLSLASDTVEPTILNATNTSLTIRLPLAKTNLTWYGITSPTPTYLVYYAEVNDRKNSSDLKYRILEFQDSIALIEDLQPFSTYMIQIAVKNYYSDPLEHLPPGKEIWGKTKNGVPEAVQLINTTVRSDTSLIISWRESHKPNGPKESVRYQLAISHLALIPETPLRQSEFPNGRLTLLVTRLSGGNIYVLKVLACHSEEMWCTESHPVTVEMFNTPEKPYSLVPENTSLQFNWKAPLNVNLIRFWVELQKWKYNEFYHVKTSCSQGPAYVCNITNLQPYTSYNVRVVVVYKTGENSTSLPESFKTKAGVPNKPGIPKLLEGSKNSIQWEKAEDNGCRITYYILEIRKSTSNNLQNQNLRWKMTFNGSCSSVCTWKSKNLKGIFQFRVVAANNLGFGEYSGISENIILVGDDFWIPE
The assay is described as follows: saturation binding assay.

The next assay concerns the target T2, ROS1 ECD (Homo sapiens, UniProt P08922).
T2 chain: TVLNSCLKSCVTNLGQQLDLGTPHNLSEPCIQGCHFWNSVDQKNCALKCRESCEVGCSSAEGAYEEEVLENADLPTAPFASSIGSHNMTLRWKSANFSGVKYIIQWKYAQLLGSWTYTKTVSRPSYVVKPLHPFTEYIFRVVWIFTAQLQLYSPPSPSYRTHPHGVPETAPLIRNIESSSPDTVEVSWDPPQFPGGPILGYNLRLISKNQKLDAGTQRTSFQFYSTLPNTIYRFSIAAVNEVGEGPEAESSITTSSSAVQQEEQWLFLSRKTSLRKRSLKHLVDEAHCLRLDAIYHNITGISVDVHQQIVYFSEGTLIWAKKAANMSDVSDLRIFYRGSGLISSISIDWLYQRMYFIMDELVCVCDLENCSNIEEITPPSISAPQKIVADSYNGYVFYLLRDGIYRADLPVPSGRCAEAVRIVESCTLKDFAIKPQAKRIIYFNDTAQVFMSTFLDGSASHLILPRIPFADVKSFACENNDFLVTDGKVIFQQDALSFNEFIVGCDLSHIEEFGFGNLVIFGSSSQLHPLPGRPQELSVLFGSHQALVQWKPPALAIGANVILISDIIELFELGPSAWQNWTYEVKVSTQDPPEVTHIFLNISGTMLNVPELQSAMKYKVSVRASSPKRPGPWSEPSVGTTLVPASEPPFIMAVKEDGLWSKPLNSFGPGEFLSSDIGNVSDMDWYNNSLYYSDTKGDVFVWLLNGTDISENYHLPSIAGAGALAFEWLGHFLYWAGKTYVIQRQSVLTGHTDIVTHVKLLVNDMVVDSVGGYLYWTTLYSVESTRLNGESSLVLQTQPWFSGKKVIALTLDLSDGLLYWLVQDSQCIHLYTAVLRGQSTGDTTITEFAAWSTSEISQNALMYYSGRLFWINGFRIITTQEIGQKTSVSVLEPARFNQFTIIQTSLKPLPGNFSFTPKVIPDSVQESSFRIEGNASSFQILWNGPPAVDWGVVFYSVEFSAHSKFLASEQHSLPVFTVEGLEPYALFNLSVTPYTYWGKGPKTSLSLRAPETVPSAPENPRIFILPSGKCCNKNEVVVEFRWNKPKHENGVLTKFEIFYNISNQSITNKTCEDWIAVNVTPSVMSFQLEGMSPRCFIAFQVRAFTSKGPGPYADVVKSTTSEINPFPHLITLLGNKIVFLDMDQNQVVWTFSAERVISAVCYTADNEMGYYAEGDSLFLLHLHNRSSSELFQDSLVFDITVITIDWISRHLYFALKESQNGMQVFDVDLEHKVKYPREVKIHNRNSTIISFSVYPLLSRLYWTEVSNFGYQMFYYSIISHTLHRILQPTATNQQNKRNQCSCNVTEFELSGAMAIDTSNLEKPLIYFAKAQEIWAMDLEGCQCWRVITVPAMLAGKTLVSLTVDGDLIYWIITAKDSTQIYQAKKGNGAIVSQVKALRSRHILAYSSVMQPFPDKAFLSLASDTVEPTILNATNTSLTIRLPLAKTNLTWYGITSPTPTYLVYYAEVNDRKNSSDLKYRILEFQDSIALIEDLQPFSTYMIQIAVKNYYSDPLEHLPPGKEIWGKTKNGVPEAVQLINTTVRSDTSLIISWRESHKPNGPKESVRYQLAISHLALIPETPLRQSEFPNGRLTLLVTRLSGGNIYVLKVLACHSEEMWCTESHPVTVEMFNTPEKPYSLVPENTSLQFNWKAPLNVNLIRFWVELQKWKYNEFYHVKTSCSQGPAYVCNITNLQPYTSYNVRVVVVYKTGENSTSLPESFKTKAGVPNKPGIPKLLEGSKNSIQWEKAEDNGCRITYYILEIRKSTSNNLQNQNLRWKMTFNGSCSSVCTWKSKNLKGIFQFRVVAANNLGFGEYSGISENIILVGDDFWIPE
The assay can be described thus: saturation binding assay.

B1: RNase7 (protein)
chain: KPKGMTSSQWFKIQHMQPSPQACNSAMKNINKHTKRCKDLNTFLHEPFSSVAATCQTPKIACKNGDKNCHQSHGAVSLTMCKLTSGKHPNCRYKEKRQNKSYVVACKPPQKKDSQQFHLVPVHLDRVL
Broadly, the Kd is the equilibrium constant for the complex coming apart. Lower therefore signals tighter binding. Regarding B1, the Kd worked out at 33.5 nM in the assay with ROS1 and 28.5 nM with ROS1 ECD.

The values are drawn from paper PMC7979498 (2022).
